What all share (assay type): binding
Assay [1] deals with T1, PDZ protein (GST-PDZ fusion) (Homo sapiens, UniProt O14907).
T1 construct: made in house; host or cells: E. coli (DH5alpha, BL21 or JM109)
T1 sequence (O14907 1-124): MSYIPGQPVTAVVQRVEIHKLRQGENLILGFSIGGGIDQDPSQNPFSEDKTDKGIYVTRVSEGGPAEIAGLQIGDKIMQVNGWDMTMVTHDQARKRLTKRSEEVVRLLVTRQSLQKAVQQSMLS
Description: G' assay (10 uM PL peptide), results of TABLE 7 and TABLE 12. As to conditions: PDZ TIP1, PDZ Domain 1. The source says:
(§1) Each page of TABLE 7 and 12 includes seven columns. The columns in each table are numbered from left to right such that the left-most column in each table is column 1 and the right-most column in each table is column 7. Thus, the first column in each table is labeled “AVC ID”; this column simply lists an internal reference number used to refer to the carboxyl-terminal amino acids of the PL proteins listed in the second column. […] All PL peptides were biotinylated at the amino-terminus and the sequences of these PL peptides are presented in TABLE 8 (see end of specification).
(§2) This column provides the gene name for the PDZ portion of the GST-PDZ fusion that interacts with the PDZ-ligand to the left. For PDZ domain-containing proteins with multiple domains, the domain number is listed to the right of the PDZ (i.e., in column 5 labeled “PDZ Domain”), and indicates the PDZ domain number when numbered from the amino-terminus to the carboxy-terminus.
(§3) The third column labeled “Peptide Optimal Concentration” in the tables is a number reflective of the binding interaction between the PL protein and PDZ protein. […] The column labeled “Protein Optimal Concentration” refers to the protein concentration used to assay PL interaction (in ug/ml); a ‘0’ is indicative of 5 ug/ml protein concentration; any other value represents the concentration (in ug/ml) used to determine the dissociation constant for a given interaction.
(§4) Finally, the seventh column labeled “Classification” is another measure of the level of binding. In particular, it provides an absorbance value at 450 nm which indicates the amount of PL peptide bound to the PDZ protein. The following numerical values have the following meanings: ‘1’—A450 nm 0-1; ‘2’—A450 nm 1-2; ‘3’—A450 nm 2-3; ‘4’—A450 nm 3-4; ‘5’—A450 nm of 4 more than 2× repeated; ‘0’—A450 nm 0, i.e., not found to interact. Thus, higher numbers indicate stronger interactions.
(§5) For convenience, the assay conditions described in this section are referred to as the “G′ assay” and the “G″ assay,” with the specific conditions described in the preceding section on G assays being referred to as the “G^0 assay.” The “G′ assay” is identical to the “G^0 assay” except at step (2) the peptide concentration is 10 uM instead of 20 uM.

The subject of assay [2] is PDZ protein (GST-PDZ fusion). The assay is described as above.
Text: as §1, §2, §3, §4, §5

The target of a further assay is T2, DLG-1 (Homo sapiens, UniProt Q12959).
T2 construct: protein spans from amino terminal end of first PDZ domain to carboxy-terminal end of third PDZ domain in frame with GST in vector; made in house; host or cells: E. coli DH5alpha
The assay can be described thus: G assay competition of short unlabeled peptides with biotinylated 20-mers (Example 6, TABLE 6). As to conditions: 100 = no competitor. An excerpt: (§6) The potential for unlabeled 8-mers and 3-mers to compete for binding with biotinylated 20-mers to PDZ domains was examined. Interactions between a PDZ domain and two or more biotinylated peptides mimicking PDZ ligands identified through the ‘G Assay’ were used as model interactions. Short, 3 or 8 amino acid, unlabeled peptides were synthesized by standard techniques and used at variable concentrations with a set concentration of biotinylated 20-mer. Ability of both the 3-mer and 8-mer to inhibit longer peptide binding was observed, making PDZ:PL interactions an attractive target for design of small molecule or peptide therapeutics.
(§7) Peptides representing the C-terminal 3, 8 or 20 amino acids of a PDZ ligand were synthesized by standard FMOC chemistry and biotinylated if not used as an unlabeled competitor. Peptides three amino acids in length were acetylated to more properly mimic the peptide bond without introducing an amino-terminal charged group. Peptides were purified by reverse phase high performance liquid chromatography (HPLC) using a Vydac 218TP C18 Reversed Phase column having the dimensions of 10*25 mm, 5 um. Approximately 40 mg of peptide was dissolved in 2.0 ml of and aqueous solution of 49.9% acetonitrile and 0.1% Tri-Fluoro acetic acid (TFA). This solution was then injected into the HPLC machine through a […] syringe filter (Millipore). Buffers used to get a good separation are (A) distilled water with 0.1% TFA and (B) 0.1% TFA with Acetonitrile.
(§8) The G Assay was performed as described in EXAMPLE 3 with the exception that when a short competitor was used, 30 ul of competitor peptide (at twice the final concentration) was mixed with 30 ul biotinylated 20-mer (at twice the final concentration) and then added to the well.
(§9) PSD-95 and DLG-1 were incubated in the wells at 5 ug/ml as described in the G Assay protocol. Biotinylated 20-mer peptides used were 20 uM CLASP-2, 20 uM CD46, 10 uM CD95, and 10 uM KV1.3 (find sequences of peptides in TABLE 8). Competitors (unlabeled, short peptides) tested against each of the biotinylated peptides were 50 uM 8-mer of CD95, 100 uM 8-mer of CD46, 50 uM 8-mer of CLASP-2, and 1 mM and 500 uM acetylated 3-mer of CLASP-2. To deduce sequences, refer to TABLE 8. All absorbances were read at 450 nm after stopping TMB detection reaction at 30 min. Results were normalized in each group by dividing its A450 by the A450 of the PDZ/peptide binding in the absence of competitor and converting to percentage by multiplying by 100.

The target of another assay is T3, PSD-95 (Homo sapiens, UniProt P78352).
T3 construct: protein spans from amino terminal end of first PDZ domain to carboxy-terminal end of third PDZ domain in frame with GST in vector; made in house; host or cells: E. coli DH5alpha
Described as above. The note with it: for % binding: 100 = no competitor.
Text: as §6, §7, §8, §9

Assay [3] concerns the target T4, PDZ protein (GST-PDZ fusion) (Homo sapiens, UniProt O15018).
T4 construct: made in house; host or cells: E. coli (DH5alpha, BL21 or JM109)
The assay can be described thus: G' assay (10 uM PL peptide), results of TABLE 7 and TABLE 12. As to conditions: PDZ AIPC, PDZ Domain 1.
Text: as §1, §2, §3, §4, §5

Assay [4] concerns the target T5, PDZ protein (GST-PDZ fusion) (Homo sapiens, UniProt Q13796).
T5 construct: made in house; host or cells: E. coli (DH5alpha, BL21 or JM109)
The description is as above. As to conditions: PDZ hAPXL, PDZ Domain 1.
Text: as §1, §2, §3, §4, §5

Assay [5] has as its target T6, PDZ protein (GST-PDZ fusion) (Homo sapiens, UniProt Q6P0Q8).
T6 construct: made in house; host or cells: E. coli (DH5alpha, BL21 or JM109)
The assay is described as above.
Text: as §1, §2, §3, §4, §5

In assay [6] the target is T7, PDZ protein (GST-PDZ fusion) (Homo sapiens, UniProt Q12923).
T7 construct: made in house; host or cells: E. coli (DH5alpha, BL21 or JM109)
The description is as above. As to conditions: PDZ PTPL-1, PDZ Domain 2.
Text: as §1, §2, §3, §4, §5

Assay [7] deals with T8, PDZ protein (GST-PDZ fusion) (Homo sapiens, UniProt Q14160).
T8 construct: made in house; host or cells: E. coli (DH5alpha, BL21 or JM109)
The assay is described as above. As to conditions: PDZ KIAA0147, PDZ Domain 1.
Text: as §1, §2, §3, §4, §5

Assay [8] has as its target T9, PDZ protein (GST-PDZ fusion) (Homo sapiens, UniProt Q5TCQ9).
T9 construct: made in house; host or cells: E. coli (DH5alpha, BL21 or JM109)
T9 sequence (Q5TCQ9 1-1481): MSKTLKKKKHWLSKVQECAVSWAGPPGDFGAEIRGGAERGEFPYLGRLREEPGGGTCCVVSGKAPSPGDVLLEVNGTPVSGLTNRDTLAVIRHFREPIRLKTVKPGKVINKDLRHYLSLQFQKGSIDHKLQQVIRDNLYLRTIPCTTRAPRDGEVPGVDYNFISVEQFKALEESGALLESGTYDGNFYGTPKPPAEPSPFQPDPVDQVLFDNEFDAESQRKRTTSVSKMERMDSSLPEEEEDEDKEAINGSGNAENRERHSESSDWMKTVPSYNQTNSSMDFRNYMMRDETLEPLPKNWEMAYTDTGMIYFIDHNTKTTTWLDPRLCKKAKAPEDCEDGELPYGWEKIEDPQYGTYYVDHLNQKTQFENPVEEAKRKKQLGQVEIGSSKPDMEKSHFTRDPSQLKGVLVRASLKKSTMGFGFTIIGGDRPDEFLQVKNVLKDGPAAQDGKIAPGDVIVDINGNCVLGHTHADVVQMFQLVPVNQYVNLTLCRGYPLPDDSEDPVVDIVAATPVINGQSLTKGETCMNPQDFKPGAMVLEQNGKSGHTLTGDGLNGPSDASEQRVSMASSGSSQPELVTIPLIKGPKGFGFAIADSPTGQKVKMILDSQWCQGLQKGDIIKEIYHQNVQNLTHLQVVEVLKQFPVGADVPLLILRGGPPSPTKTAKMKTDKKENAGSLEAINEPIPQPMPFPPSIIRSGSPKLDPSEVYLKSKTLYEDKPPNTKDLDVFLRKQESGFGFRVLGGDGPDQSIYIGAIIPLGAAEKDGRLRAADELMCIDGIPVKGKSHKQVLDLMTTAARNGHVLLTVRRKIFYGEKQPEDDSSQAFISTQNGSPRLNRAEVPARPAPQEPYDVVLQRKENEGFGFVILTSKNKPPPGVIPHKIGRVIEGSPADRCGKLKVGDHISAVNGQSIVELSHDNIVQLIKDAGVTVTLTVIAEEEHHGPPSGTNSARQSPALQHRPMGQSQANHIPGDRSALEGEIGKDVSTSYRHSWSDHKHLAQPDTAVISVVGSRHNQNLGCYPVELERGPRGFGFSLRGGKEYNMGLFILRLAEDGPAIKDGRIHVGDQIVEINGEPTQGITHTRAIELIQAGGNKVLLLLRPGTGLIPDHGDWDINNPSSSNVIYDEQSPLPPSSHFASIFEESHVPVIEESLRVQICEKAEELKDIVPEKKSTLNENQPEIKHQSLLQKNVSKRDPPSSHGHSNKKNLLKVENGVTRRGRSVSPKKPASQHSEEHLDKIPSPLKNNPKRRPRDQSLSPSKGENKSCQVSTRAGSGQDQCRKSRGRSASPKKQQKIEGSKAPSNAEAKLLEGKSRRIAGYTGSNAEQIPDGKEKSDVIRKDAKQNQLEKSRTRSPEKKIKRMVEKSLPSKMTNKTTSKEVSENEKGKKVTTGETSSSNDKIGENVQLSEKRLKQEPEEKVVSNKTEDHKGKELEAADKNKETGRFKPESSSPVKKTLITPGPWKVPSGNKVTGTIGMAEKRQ
The description is as above. As to conditions: PDZ KIAA1634, PDZ Domain 2.
Text: as §1, §2, §3, §4, §5

The mark [9] stands for this setting: biotinylated 20-mer CD46 20 uM, competitor 500 uM.
Setting [10] is: biotinylated 20-mer CD46 20 uM, competitor 1000 uM.
[11] abbreviates: biotinylated 20-mer CD95 10 uM, competitor 500 uM.
[12] abbreviates: biotinylated 20-mer CD95 10 uM, competitor 1000 uM.
Where [13] appears, read: biotinylated 20-mer CLASP-2 20 uM, competitor 500 uM.
[14] abbreviates: biotinylated 20-mer CLASP-2 20 uM, competitor 1000 uM.

Ends that are not written are not given here. * marks the point of attachment. Biotin = O=C1N[C@H]2[C@H](CS[C@H]2CCCCC(=O)*)N1

T2 sequence (Q12959 224-546 limits assumed): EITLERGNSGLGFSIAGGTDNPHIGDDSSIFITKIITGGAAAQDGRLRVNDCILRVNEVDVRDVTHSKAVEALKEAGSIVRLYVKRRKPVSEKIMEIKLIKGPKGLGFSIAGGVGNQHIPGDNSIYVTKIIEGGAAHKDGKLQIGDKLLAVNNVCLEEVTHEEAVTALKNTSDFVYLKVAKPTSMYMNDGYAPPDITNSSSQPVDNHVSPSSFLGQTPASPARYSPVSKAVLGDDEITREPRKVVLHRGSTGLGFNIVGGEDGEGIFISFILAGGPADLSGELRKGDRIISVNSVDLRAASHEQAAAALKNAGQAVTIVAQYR
T3 sequence (P78352 58-398 limits assumed): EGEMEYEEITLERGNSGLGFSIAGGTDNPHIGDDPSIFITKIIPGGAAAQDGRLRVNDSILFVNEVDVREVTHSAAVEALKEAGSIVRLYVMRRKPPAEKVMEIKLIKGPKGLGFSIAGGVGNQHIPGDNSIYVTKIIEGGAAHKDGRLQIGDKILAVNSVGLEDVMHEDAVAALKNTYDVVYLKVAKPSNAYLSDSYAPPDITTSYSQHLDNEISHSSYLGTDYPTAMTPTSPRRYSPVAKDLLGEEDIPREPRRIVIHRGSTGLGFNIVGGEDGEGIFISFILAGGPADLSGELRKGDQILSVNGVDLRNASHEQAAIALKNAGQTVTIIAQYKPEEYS
T6 sequence (Q6P0Q8 whole entry, the tested form may be a part): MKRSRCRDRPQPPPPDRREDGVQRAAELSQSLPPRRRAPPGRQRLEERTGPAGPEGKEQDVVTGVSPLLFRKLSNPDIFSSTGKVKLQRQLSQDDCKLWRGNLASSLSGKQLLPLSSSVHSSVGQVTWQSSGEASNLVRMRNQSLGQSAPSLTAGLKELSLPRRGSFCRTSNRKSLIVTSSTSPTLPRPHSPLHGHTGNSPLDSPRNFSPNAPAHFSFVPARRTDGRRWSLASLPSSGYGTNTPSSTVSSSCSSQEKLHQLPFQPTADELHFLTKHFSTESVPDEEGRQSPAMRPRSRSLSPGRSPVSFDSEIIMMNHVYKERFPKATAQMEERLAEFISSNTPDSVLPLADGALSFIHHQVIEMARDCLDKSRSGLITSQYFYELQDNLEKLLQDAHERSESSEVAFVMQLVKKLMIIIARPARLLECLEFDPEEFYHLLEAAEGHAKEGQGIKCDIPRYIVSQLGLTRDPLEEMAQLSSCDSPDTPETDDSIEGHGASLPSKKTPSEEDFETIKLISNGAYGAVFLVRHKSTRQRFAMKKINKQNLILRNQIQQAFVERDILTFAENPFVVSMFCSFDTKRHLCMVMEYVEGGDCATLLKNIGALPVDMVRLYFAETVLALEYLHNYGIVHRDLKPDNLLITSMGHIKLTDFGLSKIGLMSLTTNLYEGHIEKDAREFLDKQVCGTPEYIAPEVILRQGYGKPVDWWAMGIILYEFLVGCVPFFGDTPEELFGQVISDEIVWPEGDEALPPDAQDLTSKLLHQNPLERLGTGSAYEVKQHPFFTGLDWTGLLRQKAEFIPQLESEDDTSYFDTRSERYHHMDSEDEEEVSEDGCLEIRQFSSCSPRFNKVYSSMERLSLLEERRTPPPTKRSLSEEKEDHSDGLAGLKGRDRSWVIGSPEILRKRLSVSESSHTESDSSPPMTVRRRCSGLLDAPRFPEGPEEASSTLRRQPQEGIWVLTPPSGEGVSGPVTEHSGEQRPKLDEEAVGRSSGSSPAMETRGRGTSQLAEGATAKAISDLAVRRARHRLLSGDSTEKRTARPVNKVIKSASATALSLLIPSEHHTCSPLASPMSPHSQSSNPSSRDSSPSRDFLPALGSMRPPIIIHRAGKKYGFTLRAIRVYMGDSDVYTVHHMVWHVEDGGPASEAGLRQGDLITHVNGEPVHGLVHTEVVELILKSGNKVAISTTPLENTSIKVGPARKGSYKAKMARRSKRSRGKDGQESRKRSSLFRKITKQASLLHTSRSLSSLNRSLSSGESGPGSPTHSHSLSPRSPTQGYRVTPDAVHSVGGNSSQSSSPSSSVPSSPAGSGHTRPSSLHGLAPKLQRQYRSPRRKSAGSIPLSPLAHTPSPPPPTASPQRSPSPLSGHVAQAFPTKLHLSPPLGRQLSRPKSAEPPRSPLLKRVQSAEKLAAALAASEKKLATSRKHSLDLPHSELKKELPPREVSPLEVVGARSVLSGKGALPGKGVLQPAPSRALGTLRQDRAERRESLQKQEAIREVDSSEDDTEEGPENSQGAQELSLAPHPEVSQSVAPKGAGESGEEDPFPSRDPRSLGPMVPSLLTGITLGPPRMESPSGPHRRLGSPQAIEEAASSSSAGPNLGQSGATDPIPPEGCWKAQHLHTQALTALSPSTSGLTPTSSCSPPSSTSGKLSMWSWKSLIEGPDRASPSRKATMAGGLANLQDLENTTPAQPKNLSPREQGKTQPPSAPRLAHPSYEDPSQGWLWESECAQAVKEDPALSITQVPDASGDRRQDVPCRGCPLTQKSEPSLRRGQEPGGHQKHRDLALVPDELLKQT
T5 sequence (Q13796 whole entry, the tested form may be a part): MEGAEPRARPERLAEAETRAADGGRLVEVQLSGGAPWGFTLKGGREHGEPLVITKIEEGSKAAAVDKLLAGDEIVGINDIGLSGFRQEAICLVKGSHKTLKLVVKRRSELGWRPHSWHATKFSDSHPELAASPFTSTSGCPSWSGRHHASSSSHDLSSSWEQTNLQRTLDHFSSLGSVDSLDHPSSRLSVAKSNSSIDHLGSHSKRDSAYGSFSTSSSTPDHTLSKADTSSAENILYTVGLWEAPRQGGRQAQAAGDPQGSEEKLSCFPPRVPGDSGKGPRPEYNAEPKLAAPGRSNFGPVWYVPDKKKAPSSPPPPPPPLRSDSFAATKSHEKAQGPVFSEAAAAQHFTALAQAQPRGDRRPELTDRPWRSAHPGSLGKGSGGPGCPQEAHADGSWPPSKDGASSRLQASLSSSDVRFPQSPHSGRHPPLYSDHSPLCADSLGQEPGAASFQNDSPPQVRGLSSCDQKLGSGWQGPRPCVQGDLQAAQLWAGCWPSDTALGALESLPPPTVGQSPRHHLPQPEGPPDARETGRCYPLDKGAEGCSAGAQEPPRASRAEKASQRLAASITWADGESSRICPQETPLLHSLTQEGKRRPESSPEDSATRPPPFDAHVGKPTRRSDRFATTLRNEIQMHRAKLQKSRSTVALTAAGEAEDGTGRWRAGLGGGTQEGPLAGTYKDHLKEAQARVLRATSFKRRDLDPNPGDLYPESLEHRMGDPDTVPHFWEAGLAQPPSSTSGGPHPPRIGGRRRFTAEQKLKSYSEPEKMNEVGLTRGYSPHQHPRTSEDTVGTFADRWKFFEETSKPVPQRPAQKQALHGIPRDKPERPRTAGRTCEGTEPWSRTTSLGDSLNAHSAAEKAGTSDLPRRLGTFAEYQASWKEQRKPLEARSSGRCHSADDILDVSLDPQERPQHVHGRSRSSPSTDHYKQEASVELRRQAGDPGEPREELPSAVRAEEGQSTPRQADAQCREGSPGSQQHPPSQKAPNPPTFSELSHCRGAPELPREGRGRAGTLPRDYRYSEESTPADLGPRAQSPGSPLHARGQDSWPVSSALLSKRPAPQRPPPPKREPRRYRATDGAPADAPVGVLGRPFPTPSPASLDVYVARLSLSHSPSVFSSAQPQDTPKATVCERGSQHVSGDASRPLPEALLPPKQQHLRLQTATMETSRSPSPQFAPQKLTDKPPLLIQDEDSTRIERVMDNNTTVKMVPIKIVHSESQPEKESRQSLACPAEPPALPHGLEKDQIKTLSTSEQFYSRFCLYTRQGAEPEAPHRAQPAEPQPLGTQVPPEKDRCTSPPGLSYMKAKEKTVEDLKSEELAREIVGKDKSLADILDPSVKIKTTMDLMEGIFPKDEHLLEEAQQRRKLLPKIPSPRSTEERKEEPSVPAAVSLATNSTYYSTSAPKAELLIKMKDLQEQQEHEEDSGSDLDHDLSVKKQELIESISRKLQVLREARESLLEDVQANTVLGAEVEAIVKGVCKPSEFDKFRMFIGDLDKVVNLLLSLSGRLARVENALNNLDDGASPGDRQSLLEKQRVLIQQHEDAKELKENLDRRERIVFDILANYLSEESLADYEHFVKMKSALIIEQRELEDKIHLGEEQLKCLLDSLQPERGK

“SGGNRARQERLQRRRETQV (Biotin-SGGNRARQERLQRRRETQV) [HPV E6 #18]”: the Classification in assay [1] is 4 (A450 nm 3-4); in [2] (PDZ BAI-1, PDZ Domain 2) it was 5 (A450 nm of 4 more than 2× repeated).

Turning to “SVV [CLASP-2 3-mer, acetylated peptide of the C-terminal 3 amino acids of CLASP-2]”, the “% binding” value with DLG-1 (setting [9]) is recorded as 72%; with DLG-1 (setting [10]) it was 45%; in the assay with DLG-1 (setting [11]), 51%; with DLG-1 (setting [12]), 46%; with DLG-1 (setting [13]), 61%; in the assay with DLG-1 (setting [14]), 59%. The “% binding” value in the assay with PSD-95 (setting [9]) is recorded as 75%; with PSD-95 (setting [10]), 59%; in the assay with PSD-95 (setting [11]), 55%; in the assay with PSD-95 (setting [12]), 55%; with PSD-95 (setting [13]), 82%; in the assay with PSD-95 (setting [14]) it was 63%. Besides, the “% binding” value with PSD-95 (biotinylated 20-mer KV1.3 10 uM, competitor 500 uM) turned out to be 81%; in the assay with PSD-95 (biotinylated 20-mer KV1.3 10 uM, competitor 1000 uM) it was 50%. The “reduction of labeled ligand binding” value with PSD-95 (competitor 1 mM, 50-100-fold excess, summary of TABLE 6, PDZ not given) is “up to 50%”.

As to “SEGGRPTRGPRLQGRRVTQV [HPV E6 52 (modified)]”, the Classification in assay [1] is reported as 0 (A450 nm 0, i.e., not found to interact); in assay [2] (PDZ BAI-1, PDZ Domain 2), 5 (A450 nm of 4 more than 2× repeated).

“ACM3_HUMAN (Biotin-QQYQQRQSVIFHKRAPEQAL)”: the Classification was 1 (A450 nm 0-1) in [3]; 1 (A450 nm 0-1) in assay [4]; 1 (A450 nm 0-1) in [5] (PDZ KIAA807); 1 (A450 nm 0-1) in assay [5] (PDZ KIAA0807(S), PDZ Domain 1).

Turning to GTSDMKDLVGNIEQNEHSVI [Mannose Receptor], the Classification is 1 (A450 nm 0-1) in assay [4]; 1 (A450 nm 0-1) in assay [5] (PDZ KIAA807); 1 (A450 nm 0-1) in assay [5] (PDZ KIAA0807(S), PDZ Domain 1); 1 (A450 nm 0-1) in assay [2] (PDZ FLJ 00011, PDZ Domain 1).

“PYQSQGFSTEEDEDEQVSAV (Biotin-PYQSQGFSTEEDEDEQVSAV) [RA-GEF (ras/rap1A-assoc-GEF)]”: the Classification is listed as 4 (A450 nm 3-4) in assay [6], 1 (A450 nm 0-1) in assay [7] and 2 (A450 nm 1-2) in [8].

As for “GPDGIITVNDFTQNPRVQLE (Biotin-GPDGIITVNDFTQNPRVQLE) [ropporin]”, in assay [1], the Classification is 1 (A450 nm 0-1).

For the origin of these results see patent US20050282743A1, “Molecular interactions in cells” (Arbor Vita Corporation, priority 2001, published 2005).
